Measured values from patent US20080233131A1.

What was measured:
[1] = biological target: cynomolgus macaque CD4 on lymphocytes / PBMC (cynomolgus macaque (Macaca fascicularis)) (UniProt P79185); test: flow cytometry of whole blood of TRX1-immunised macaques; competitor 7E14-RPE
[2] = biological target: cynomolgus macaque CD4 on lymphocytes / PBMC (cynomolgus macaque (Macaca fascicularis)) (UniProt P79185); test: flow cytometry of whole blood of TRX1-treated macaques; competitor SK3-RPE

Chain of UniProt P79185 (P79185 26-458 limits assumed): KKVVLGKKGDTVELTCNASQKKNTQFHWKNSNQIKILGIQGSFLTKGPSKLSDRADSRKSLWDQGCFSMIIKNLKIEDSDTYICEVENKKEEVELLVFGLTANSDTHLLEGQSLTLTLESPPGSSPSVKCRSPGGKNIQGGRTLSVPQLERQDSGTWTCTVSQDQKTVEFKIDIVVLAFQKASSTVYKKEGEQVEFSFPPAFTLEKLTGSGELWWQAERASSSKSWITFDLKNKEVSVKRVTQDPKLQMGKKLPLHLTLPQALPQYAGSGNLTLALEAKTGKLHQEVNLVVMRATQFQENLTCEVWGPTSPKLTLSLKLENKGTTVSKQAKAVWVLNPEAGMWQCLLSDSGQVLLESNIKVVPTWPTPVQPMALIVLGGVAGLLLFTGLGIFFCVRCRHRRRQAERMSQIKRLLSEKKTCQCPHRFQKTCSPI

reduction in the MFI of 7E14 staining [1]: 50% | reduction in the MFI of SK3 staining [2]: 50%
Substance: humanized anti-human CD4 monoclonal antibody TRX1
